Test results: a protein production outcome set (Wang et al. 2014)

Assay: label from the status in PepcDB records

With “QEQRMSHHYATIEVSQQLRQLLGDQLVILLRETPDGQALERSQNDFRRVLEQGRANTVDSAEQAALDGVRDAYLQLQAHTPALLEAPMADNDGFSEAFNGLRLRLQDLQQLALAGISEAETSARHRA” the protein production was “not failed”.

For “MIFERIKSEGLAHLSYFVGSGNEAIVIDPRRDCQIYFDIARREGMKIKYIFETHRNEDYVIGSLELKELTDAEIYHGKGVDFKYGIFVSDGQEFNFGSMKLTALHTPGHTDESMSYALTYPESGKAPLMVFTGDALFVGDVGRTDLYGPEEIPRMAANLYESIFNKILPLGDGVILCPAHGAGSLCGGAISKREYSTLGLERIQNPALQRTDKEEFIKFKLEEKLEFPPYFKKMEQYNLQGPPLLKGLPVPELLFPKEFVKEMEKGAMVVDTRMPHSFGGAHIKGSYGIWLKGLPYYAGWVLPYDKPILLVLEEKDQLETAVSYLVRIGYDSIAGFLNGGISSWYMKALPVESLNLISVQSLKDKIEKNEEMVILDVRRDEEWEKGHIEGARHVYVGHLEENLDKVPRNSPIIVYCDSSRRSNIAASILKKKGYDMVYNVLGSMTAWKNAGYKVVKLEHHHHHH”, the protein production was “not failed”.

For “MAYTIGVDFGTLSGRAVLVHVQTGEELAAAVKEYRHAVIDTVLPKTGQKLPRDWALQHPADYLEVLETTIPSLLEQTGVDPKDIIGIGIDFTACTILPIDSSGQPLCMLPEYEEEPHSYVKLWKHHAAQKHADRLNQIAEEEGEAFLQRYGGKISSEWMIPKVMQIAEEAPHIYEAADRIIEAADWIVYQLCGSLKRSNCTAGYKAMWSEKAGYPSDDFFEKLNPSMKTITKDKLSGSIHSVGEKAGSLTEKMAKLTGLLPGTAVAVANVDAHVSVPAVGITEPGKMLMIMGTSTCHVLLGEEVHIVPGMCGVVDNGILPGYAGYEAGQSCVGDHFDWFVKTCVPPAYQEEAKEKNIGVHELLSEKANHQAPGESGLLALDWWNGNRSTLVDADLTGMLLGMTLLTKPEEIYRALVEATAYGTRMIIETFKESGVPIEELFAAGGIAEKNPFVMQIYADVTNMDIKISGSPQAPALGSAIFGALAAGKEKGGYDDIKKAAANMGKLKDITYTPNAENAAVYEKLYAEYKELVHYFGKENHVMKRLKTIKNLQFSSAAKK”, the protein production was “not failed”.

For “MPPMHELTIEGLGPCEVEEGTRLVRAIEDCGAAVGHRCGGQSQCTTCRVEFAAGEPPVMTEAEYDKLTDIGRLGEMRLACQIVVDRDMTLTPLMTVEDQGWDDAGPEPALMVEPDAEWFSIETLEQR”, the protein production was “failed”.

With “MATATATSERFELAKHCSSRNWSKAIRVLDSLLAKESSILDICNRAFCYNQLELHKHVIKDCDKALLLEPFAIQAFILKGRALLALGRKQEAVLVLEQGYKSALQQTADVKQLLELEELLKDARREIDGILKSHATESPQETPAYHSEKSDEKSDKLDNHESGASSNGNSHESSSELGEQSKIVSFSKVASKASKQSDGNSDLCNGSVYKEKENGKCGSQINGYYESCKPCNGSDLHDNLAESSDRFGELSINGNKISIKSSKMSHKAEARCGISDESRKNKKYTIARISGTHSISVDFRLSRGIAQVNEGNYTKAISIFDKVLKEEPTYPEALIGRGTAYAFQRELESAIADFTKAIQSNPAASEAWKRRGQARAALGEYVEAVEDLTKALVFEPNSPDVLHERGIVNFKSKDFTAAVKDLSICLKQEKDNKSAYTYLGLAFASLGEYKKAEEAHLKSIQLDSNYLEAWLHLAQFYQELADHCKALECIEQVLQVDNRVWKAYHLRGLVFHGLGEHRKAIQELSIGLSIENTIECLYLRGSCYHAVGEYRDAVKDYDATVDVELDAVEKFVLQCLAFYQKELALYTASKVSSEFLCFDIDGDIDPMFKEYWCKRLHPKNVCEKVYRQPPLRESLKKGKLKKQDLAITKQKANILRFADLIGKRIQYDCPGFLPNKRQHRMAGLAVIEIAQKVSKAWRIEWRNSTKGTTKNGKKNRRRERTNILSQNRGGAGCSSSSFSETSTGYASLEDRSSGRSILSWQDVYSPAVRWRQISEPCDPVVWVNKLSEEFNSGFGSHTPMVLGQAKVVRYFPNYERTLTLAKSIIKDKLSVRSKKDKVIDLSKDEKIEKIMRAETCDELHNIVGEDFWVATWCDSTGSEGWVC” the protein production was “failed”.

For “MDSMDHRIERLEYYIQLLVKTVDMDRYPFYALLIDKGLSKEEGEAVMRICDELSEELATQKAQGFVTFDKLLALFAGQLNEKLDVHETIFALYEQGLYQELMEVFIDIMKHFD”, the protein production was “not failed”.

With “MNLTKRITAWFLTLVMVLGLIPQTMFAQEIATSPLQYEATQEMNEDKTEATISIKFTETETIQLEKVTLSDGTEKVEDLSEVTYTVSENGKYDFKVNYVMEGTPQEETISVEVSGLEEKIKELVTNQNIELDVDIQLKGATYFDGHPNPFFGGTKQYMISDRSIIPYNGMQLMELIVEIPYQEGLEIQGITPSAASQYPDLSKVEKDDKNKKWTYSFYFYKNGTYEFTIDYILNGENKITSTSFTVDGLVSIKDIAMRRHLINEYGEFSGFRYQDGQYVTQDILAKEPSVGFFTFGLDGDNGTTAEYTTSLDGLQYLKNATGLYLYDCKKLAEGETIEPVTEGYYPNMKLFRVSNLNERPNMPKSAYNAELVTKSIANMPALTELVINGTGFSDCTVFRKITAGSLDYLQAMANNIVSLDGIESQQNLSSINIGQNKIKSIDPLSKLNQINFLNLMRNEVFDLRPINESLNQKAVAGNTVYGFAAREQNITYDRTVITPLQNGMYTVELPMPIDIDGSLTNTSSVSLKFANGTTKTYSTSQSEGKTYISIPEGDVDSSQENPFEGAEFKFSFNNNNGADPRTKAWFTGTVTFKASPIATNYHVIYDFISGTRGKSLPPEITNLLPIDSTKYYEGDTITAKNPTQLELEVSDGVWTFEGYDADSKTANANSANEDGNIQFTGTWIFETKKYDVSYKFESINTDKEVPKEILDMLPTVGSVEHGKTVNAPETEYKDVKVTDGVWSFKGWTPVKYENVTGNVEFVGKWEFKKNASIINHIPTISASDKTLTVGDTFDPLKDVTARDKEDGDLTKEIEILKNEVNTSKARVYEVTYKVTDSKGASSIKTIYVTVNPKMEELNRIPTISASDKTLTVGDTFDPLKDVTATDKEDGDLTKEIEILKNEVNTSEAGVYEVTYKVTDSKGASSIKTIYVTVNPKMEELNRIPTISASDKTLTVGDTFDSLKDVTATDKEDGDLTKEIEILKNEVNTSKAGVYEVTYKVTDSKGASSIKTIKVTVIEKNIPIIPNEPDKPSKPDTNKPEDNGSVGTGDKTNGVFWTMLSIICGISVIGVYRKKREINQ” the protein production was “failed”.

For “MKWRSRQLSFSSAKWYGDVIWIFDPGIIGAQIDNEGDLKKCFIQTLFHSTGSRQSIRIWWREIMLSLILRIYLDKFLPWISLSIKEVGESSVINFSLWGCLHGTRFRRWYSPFQKLSALAITKKDVISSSWRCFNGMRCN”, the protein production was “failed”.

In the case of “MAAFVRDYLEASVENETDGGRMRWYPWHSAEYRFTHIMNVVDIAERIAEATSANVDVVRVAALFHDIAKLEAEQDAHAEEGARIARKYLETHGQFPPSFVDQVAEAVSRHSYQGDLMDLPLEARCLVEADLLDKAGANGAALMLLRMGYEARTHVDAAEMIQRVLDRGEDAAERVESDAASSIAHRRLKRVRWLHDWLTSEVPAMNDTGY”, the protein production is reported as “failed”.

For “MDDPFASLEPLAVAPSGPEGVRAQFDQMEDIPPPRPRQPPPAQEDPVEIEVTEDGVARAFTEKYGGTLRFDHDAGRWYHWQEDHWQADTTSRAFEYCRRLARLASEGAKHSLLSTARKASFAGGVERLARADPAHAVTQEAWDRDPWLVACPGETVDLRTGRSAVPRPEDGITRRVAVAPAAQETCPTWWQFLEDATGADSSVMRFLQQWAGYSLTGITREHTLVFLYGDGGNGKSVFINTLTGLLGDYAATAGMETFTASKSDRHPTDLAMLAGARLVAASETEEGRAWAESRIKQMTGGDRITARFMRRDFFTYTPQFKLTLVGNHRPALANVKPVEPWALVVPAELETVAQQVLAEIAAAAVSDVNPFSGTLELIVEPGLTSATGWYLIGNPALHDGLAHAFLDGQSAPRIETRAGWNTLGMEFRLTWAVDAKFIGTASWFRNPGASGCPRCRPRNAQRQGVALLCLARRSEVLDRLEHHHHHH”, the protein production was “failed”.

For “MRNIYSIYKEHYKALISLGLPIVIGQIGVIVLGFADTLMIGHHSTIELGAASFVNNVFNLVIIFSTGFSYGLTPIVGGLYGTHQYASAGQALRNSLLANLLVAFLLTIGMTVLYFNVGNLGQPEELIPLIKPYYLVLLASLVFVMLFNGFKQFTDGITDTKTAMWILLGGNVLNIIGNYILIYGKLGLPEMGLLGAGISTLFSRIMMVVVFIIVFMRSPRFLRFKLGFYRLGWSKAIFGRLNSLGWPIAFQMGMETASFSLSAVMIGWLGTIALASHQVMLAISQFTFMMYYGMGAAVAVRVSNFNGQGDILNVRRSAYAGFHLMMALGVVLSSIVFLCRNYLGGWFTDSTEVAAMVTSLILPFLVYQFGDGLQITFANALRGISDVKLMMLIAFIAYFLISLPVGYFCGFVLEWGIIGVWMAFPFGLTSAGLMLWWRFHHKTKLPPSIQNS”, the protein production was “not failed”.

In the case of “MAPEMNNKLSYGEKKRAYVTFLAGTGDYVKGVVGLAKGLRKTKSKYPLVVAVLPDVPADHRRQLLDQGCVIKEIQPVYPPDNQTQFAMAYYVLNYSKLRIWKFVEYSKLIYLDGDIQVFENIDHLFDLPDGNFYAVKDCFCEKTWSHTPQYKIGYCQQCPDKVTWPESELGPKPPLYFNAGMFVYEPSLPTYYNLLETLKVVPPTPFAEQDFLNMYFKDIYKPIPPVYNLVLAMLWRHPENIELNEAKVVHYCAAGAKPWRFTGQEGNMEREDIKMLVEKWWDIYNDESLDYKNFNVHCGQKEDVHRKPKTLPQFFTDLSEADVLQCAKAPSAA”, the protein production is reported as “failed”.

In the case of “MSNDSPQLPDFLLAGRYRLHRLIGAGGMGRVWEGVDELLDRPVAIKELTINEHLPPQEIEILRARMLREARSAAQLSHPSIITVFDVVEKDGFPWIVMELVHGKSLSEIIKQEGAISPERAANLGLQVAAALSVAHQRGIVHRDIKPGNVLVARGDRAVLTDFGIAYLEGSSRLTRTGSLLGSPSYLAPEQARGEPASPAADMWALGTTLYAALHGAPPFQRATPMATLTAVVVDEVPPPVKAGPLRPLLEQLLNKDPQKRPTVHEVVEELQRVVMSFPPQSSSASSTGTHTLQEEASPAPAEVSVAKPAADTSALPLSSPAEPGKRNSTLATVGLVALALCVVVAVITAVVLFVPAGGNSRADGEQPAAETSQSSEETGQAEEPEPTTSAEAAEQGVGEDDEDSEEEAEDDDYSGPPLVRHEDPTGFSLDVPEGWSVDRRGSSVFFRNPEGGYLQVDQTDSPNPDAKKDWEAQERGAAGRFSNYSLIDIRYSDHPSMERYVTASDWEFTFTINGQRMHAVNRGFHTEKKGYALFLVYPADGWEETGAPLLDRMSESFEPAA”, the protein production is reported as “failed”.

For “MKTKSWIASLFYSSLCFSSSYAINLHQITITDPIMGSRTITYEQVGEFAVVEGDILIGKAENLKNQGAVITPKVGGSRWPNGVIPYEIAENLPFINKLAILQAIDHWQKNTNLEFVELTSKNRYDYRDYISFIPAEGTTCSSYVGRQGGKQEINLAPRCTTMNTVHEIGHALGMWHEQSRSDRNQYIRIVWENIDEEHKFNFDQHLTDGKDFGEYDYGSIMHYGRFAFSKNGQPTIIPLVDGVEIGQRTHLSEKDIAAVKAMYPET”, the protein production was “failed”.

For “MVWFLILQLIVLLILVAFSATLMAKGTRELERSFGKGIAGGLILGFINALPETIIVIQAVLNGFYDIALGSALGGNILLLTLGIGLISIFYYLKYKSNIITLDSDINIEYSSFLLAVIILGIAIVYGKLNYYIGLFLLSPYIYYIYRRYKNYRGILKNEKNKGNAIKGLAYVMIGGLPLIFISKYLISTISSIASVFNVQPLILAILITPIAAELEENLTAIKLISDSPSSATTALMNFIGSKLENMTLLLSIIGISQTVSLRPSLLYLLLILATSLLALGIIKDRNIKVKEGLSLFGIYAILIAILLRFSA”, the protein production was “failed”.
